Earlier results, collected in PMC4650670.

Molecular target: actin (Oryctolagus cuniculus) (UniProt P68135)

Substance: nebulin repeat fragment (from UniProt P20929)
- Kd: 220 µM
